experiment: soluble on expression in E. coli; label from the status in PepcDB or PDB records

| Sequence | soluble on expression in E. coli |
| --- | --- |
| MGSDKIHHHHHHMDRSERLIQLISEEGIDAFLIMNIENSARASSVYFSGFTGSFSIILISENTRLLITDSRYTVQAKQETDFEVREVKGGDFIDVLKKTVNDLKIKTIALEEERVSLSLFRRISSAFGDRKFIGIDDEVKQMRMVKDEGEIEKIKQAIEISERAFLETVQQIRAGMTEKEIAALLEYTMRKEGAEGVAFDTIVASGCRSALPHGKASDKVVERGDVIVIDFGATYENYCADITRVVSIGEPSDEVKEVHSIVLEAQERALKIAKAGVTGKLLDSVAREFIREKGYGEFFGHSLGHGIGLEVHEGPAISFRNDSPLPENVVFTVEPGIYLEGKFGIRIEEDVVLKEQGCEILTTLPRSIFVV | not soluble |
| MGSDKIHHHHHHMDRWTQLQLFVLTADLGSLSKAAEQLDMSNAAASRTLSSLEERLGARLIERTTRRMWLTDAGREYHRRCTAVIAELAEADAIASEEVVNPRGVLRVTSSVSFAMMHLAPALPEFLKRYPNLTVQITATNQYQNFIESGIDIAIRTKEHEGDSCITIRRLAETRRVLAASPAYLATHGRPQKPEDLAQHNMLVYNLAVDPYLLHLRRGKEERNIAIASALDSNEGQVIVAAGRAGLGIVVQPLYIIHDDIVSGRLVPVLEDWQLPRLTINLAYQSRRYQPAKIRVFTDFLIERVKNLNLEERWMTFAA | not soluble |
| MGSDKIHHHHHHMDSLLFGISGLPNRNSNKKFTYKTGIEYLREIGLDAMELPFVRSVNITDKNKNEVLDTKLKNDFYLSAHGSYFINLNADEEEKIEKSLERIIKGAEGLKKVQGKSLIFHPGFYLKDSKEETFETIKENLLRLPDLGVDYRLETTGKGTQFGSLEENVALCKAVDTCKLCIDFSHIHARYNGSLKSYDDFARILNYVGNELGDEGLNDMHIHLSGINYTAKGERNHLPFEESDFNYKDCLKAFRDFDIKGCVICESPVLEHDALLLKNYYETL | not soluble |
| MGSDKIHHHHHHMDTLQKTIHNSEYPVVCRSCEARHGGLCSTLTPQQLCDLNRHSSRKKLEAGNELLGQGELVTSYGNILNGVVKLSKMMSDGRQQIVGLQFAPDFLGRPFMAESKMTAEAATDVEICLFPRRIVDRMVTEVPDMERKLHSQSLKELDEARDWMLTLGRKSAQEKVASFLYMIATHIDPENDDKSCFDLPLSRADIADFLGLTIETVSRQMTKLRKEGTIRIENNRHITVPDLDVLSEAAGND | not soluble |
| MGSDKIHHHHHHMDVIQLSNDGRCRWLEKQVMNKIFPQAIRSAKIKDIPTQYMIIDWISNDNGKVGVDLKWFKKLGVPYVKTYNDLPEGNDFVVVNTGYDSIVHEEKVLREKGVEILDKPCPFVRKLRKEFEKIDDSYQYVLLCESNHIIIKNFATIFPRDMILIQMGNYKEKLLEQSNGKPMMFISYVTFLKKHSIQVFDFINKTFPGKDHKMVDTQCMWAAGRLSPIDEIRNMSEDILKEVRYALLIGSPGSTNKSLMSLHETIIDKGLEVINIGSLRDFLDFRRKHKKEKVLLVKSPIPNQAEKPILAFLRHGYLYAYYTLWRER | not soluble |
| MGSDKIHHHHHHMDVSITQTSADKIKAGKSGLLLISDNYDAFAARVLAARGAARTLDLMYYLWHDDHTGRLLLQEVVRAAQRGVRVRMLLDDVNPRKSDAAYLALSNHPNIELKLFNPSGIRARGLMRGAEVLLRLFALTRRMHNKAWIADDNIAIVGGRNVGDAYFDAAETNFRDLDMLLLGPAVQQTAQIFQTFWVCQDAKPIAELGAAAPGSHAPYFEGREEKTESTLLSGIRDKGSIAEFISASSNVHWVERVRVISDPPEKVRGWRPRSWLMKELLPIIQSARKRVEIVSPYFIPGKKGSKILGDLVDDGVQVAVLTNSLAATDVAAVHGAYANYRKRLLRMGVQLFELQPFSRQPKISVFGSKGASLHTKAFSVDNRIGFVGSFNFDPRSVSLNSEMGVLFEDENLVAELRHRFKSEIAPEASYRLELKNEVLRWHGSDEGRLQTYTREPEAAWFRRILAALVRHLPIESQL | not soluble |
| MGSDKIHHHHHHMDVTMGYFTIPKGPGDSTDARWYNAPGGRSIFLRPDNKGTTRAVLTLQAPIREAPESAQEQKRWLKERFADAGWEAPRVLDGLEDATDLYFDLLRQVRMKRWHKGRIALTGDAAWCATPLSGIGTTLAIVGAYVLAGELSKTHDIAQAFKCYENIMRPFVEKGQNVPKFGPRLMHPHSRLGVSFQRSALRFVSKPGIQKVLTKVAMPAADKVDLPDYQYHASS | not soluble |
| MGSDKIHHHHHHMDYRMCWLEYRGLPADVAGKLKDWFSSVSILEPGSSVLKDEIRRFSERSIGITPRFYSRPLKKEKYIMVGRLESLPIKLDVNLGEEGFMLRTIEWNGSKILLVTGETKKALVYGIFDLMKRIRLGEDIEKMNVLAKPKAKFRMLNHWDNLDGTIERGYAGNSIFFKDNRIIINQRTKDYARLLASIGINGVVINNVNVKKREVYLIDSIYLKKLKKLADIFREYGIKIYLSINFASPVYLGGLDTADPLDERVARWWREKARGIYDYIPDFGGFLVKADSEFNPGPHMFGRTHAEGANMLARALAPFGGVVIWRAFVYNCLQDWRDYKTDRAKAAYDNFKPLDGQFDDNVIIQIKYGPMDFQVREPVNPLFGGMEKTNQILELQITQEYTGQQIHLCFLGTLWKEILEFDTFAKGEGSYVKRIVDGTLFDRENNGFAGVSNVGDSVNWTGHDLAQANLYAFGRLAWNPDEEIERIVEEWIKLTFGDDEKVLENVSYMLMKSHRTYEKYTTPFGLGWMVNPGHHYGPNPEGYEYSKWGTYHRANWEAIGVDRTSRGTGYTLQYHSPWKEIYDDINTCPEDLLLFFHRVRYDHRLKSGKTLLQTMYDLHFEGVEEVEEFIKKWEELKDRVSPDIFERVKERLHMQLEHAKEWRDVINTYFYRRTGIPDEKGRKIYP | not soluble |
| MGSDKIHHHHHHMEDIIVVENLVKKFGDFEAVKGVSFSVKKGEIFAFLGPNGAGKTTTIHMLTTLLKPTSGKAWVAGHDVLKEPREVRRKIGIVFQDQSLDRELTAYENMYIHGKIYGYGGEKLKKRILELLEFVELLEFKDKPVKTFSGGMARRLEIARSLIHEPEVLFLDEPTIGLDPHTRAHMWEYISKMKKEHNMTIFLTTHYMDEAEQLADRVAIIDHGKIIALGTPTELKRMVGKEIIYVRFSEAVECLEGDFIESCRKLPDGRLELNVEDSGRAIPKIFELAQQKGLKIEEITYHKPTLNDVFLHLTGRELREEGPENSFKTMARMRMRMRR | not soluble |
| MGSDKIHHHHHHMEEKLSDVKVSGSGSIGGGNYDEVKISGSAKINGNVNCNSYMCSGSSTANGNITAKEIVKISGTTKVHGDLNSGDLIVSGSSRTFGNVTAKKIKISGSSDIEGNVHTDSIDISGSVSIGEDCEAEHFHARGGFEIAGLLNAGDIEIYMYGKCRVKDIGGENITVKLGSGHFIHEMMNLFFTRGRLVTSIIEGDNIYLEHTDAKIVRGNNITIGPNCNIENIEYKNQLNMDQSCKALCKKVDE | not soluble |
| MGSDKIHHHHHHMEFIPPKRLLELIRQYSTTFENWHSVMLSIYLHKERIKCKLRNGQLLYLKPNEIVLLAGLKIVELNEDSVRFQFNGREICLKGWKLSYPGDSFSDYWRIDVRGKRVLDIGAGIGDSPIYFSIAGAKEVVAVEVDSKKVELMRENLKANSINNVIVVDKGVGIKDDENYISWPKLISNYGPFDVAKIDCDGCEKIIVPYIKEIPSLLIEWDYNYKDIVSNLTKNGYKVKVEHTLKNLGFIYAKKR | not soluble |
| MGSDKIHHHHHHMEITKRIEELREEMVESLKKFISINSVNPAFGGPGEKEKADWLEGLLRDFGFEVDRCDVRDDRGIWRSNIVAKIPGKNREKTLWIVTHIDTVPPGDLSLWETDPFVPVVKDGKVYGRGAEDNGGSMIASIYAGKALIDLGITPEYNFGLALVADEEAGSEYGIQYLIEKGLFSPEDMFLVPDAGNEKGDFIEIAEKSILWFKVMVNGKQGHASRPQTTENALRKGAHLITEIDEALHRKYSDRDELFDEPLSTFEPTRAEKTVDNVNTVPGRFVFYFDCRVLPRYNLDEVLSIVKSILDGRGAELEVVVKQPAPEPTPPDSELVVKLSNVLRSLRGLEAKVGGIGGGTCAAFFRKKGWPAVVWSTIDETAHQPNEYRRISHMVEDAKVFALLGTER | not soluble |
| MGSDKIHHHHHHMEKKIVYFNKPGRENTEETLRLAVERAKELGIKHLVVASSYGDTAMKALEMAEGLEVVVVTYHTGFVREGENTMPPEVEEELRKRGAKIVRQSHILSGLERSISRKLGGVSRTEAIAEALRSLFGHGLKVCVEITIMAADSGAIPIEEVVAVGGRSRGADTAVVIRPAHMNNFFDAEIKEIICMPRNKR | soluble |
| MGSDKIHHHHHHMEKKPLYHFMPGTMTWSFGTPGCNFKCANRQNWAISQMGQDKSIPLATPEAIVRNAMNTGCSSISCTYTEPTIFAEYALDVMQLARQTGLRNIWISNGYLSPLCLKTVTPWLDAINVGLQSMDDAFYRRVCGARLDPVLDSLRLIQESGMHLEITTLVIPGHSSDPAMLERLAGFIAHDLGTGVPWHIIPFYPEISWKMQDTPPTPAESIEQAFEIGRKAGLSFIYAGNAHSDTFCDQCSARLVGRKASPFGDYRIERFDTGGRCPVCHAPSPMRD | not soluble |
| MGSDKIHHHHHHMEKLQESMYQLIVETSTNLPKDVRRAIQQAKERENAGTRSAMALGTITNNIKMADDNISPICQDTGMPTFKIYTPVGVNQLKLKEAIYNALERATKDGKLRPNSVDSLFGDNSGNNLGPGTPVIKFEQWEKDYIDARLILKGGGCENKNIQYSLPCELEGLGRAGRDLEGIRKCLLHAVYQAQGQGCSAGVIGVGIGGDRTSGYELAKNQLFRTLDDVNPIPELQQLEEYVLENANKLGIGTMGFGGETTLLGCKIGVYNRLPASFYVSVAYNCWAYRRLGVTIHPETGEIMDWLYQEGEDTLEQEVQEKTEQREIVLQAPITEEQIRELRVGDVVTINGMMYTGRDAIHKHLMDNDCPVDLNGQIIYHCGPVVVKDENDNWQIKAAGPTTSIREEPYQGDIMKKFGIRAVIGKGGMGAKTLAALEEHGGVYLNAIGGAAQYYAECIKEVKDVDFLQFGIPEAMWHLRIDGFKAVVTMDSHGNSLHADVDKTSLEKLASFKEPVFK | not soluble |
| MGSDKIHHHHHHMELASSYDKHDIRYLSASEMAELRVTNVAANQSPADTSQVSTRPDPAPVPVPAPDARQQVESAAVAFVKDLIEHHGDNDDFALAQVQASYARTVDYYGKLTNLSSIIQDKRNYYRRWPERIYNVRNDSIVVTCANDRCMVSGIYDWVVRSPSIHKQDKGASNFSYTISTGPYPKIIAETSKVRS | not soluble |
| MGSDKIHHHHHHMELRHLRYFAATAEELNFTRAANRLHISQPAVSRLIKELECELGAQLFTRERFGLRLTAAGEKFLFYARRVLQDCEEGIRAVRENGLNHQKLTIGFISTAMESFLSDALVRLSQERPDIDVTVNEMSPGDQIAALRYRQIDLGFIGNPHDGAGDEFELYVLREVPLVAVLPVRHRLAGRSEICIGELEGDTFIGYLEDKFPGRNRVISTACARAGFRPKFELKAGSLIEVLGMIGTGKGVCLMPSDVAGLPHPNVAFIPLRDPLDPVRLAAAWLPGNTNPALHQLIAILAADCSSDTGRTSR | not soluble |
| MGSDKIHHHHHHMELSSPSKKTTTSPINIPGGNRDNLIIGPHSHSFKTDPFSSNNSSLLSKISTNPSLESPFSSKSLLDCSPVQAVKKSLESEAKTHSLDEETNEQTDVKILNIADFPTDELILMISALLNRIITANDETTDVSQQVSDETEDELLTPILAFYGKNVPEIAVVQYLERIQKYCPTTNDIFLSLLVYFDRISKNYGHSSERNGCAKQLFVMDSGNIHRLLITGVTICTKFLSDFFYSNSRYAKVGGISLQELNHLELQFLILCDFKLLVSVEEMQKYANLLYKFWNDQ | not soluble |

Reference: the DeepSol protein solubility set
